# Test results: US7083949
# Assays:
# Test in all cases: cell-based or functional assay
# [1] = target: recombinant human IL-13 (E. coli) (human) (UniProt P35225)
# human IL-4 (human) = human IL-4 (human) (UniProt P05112)
# human IL-13 (human) = human IL-13 (human) (UniProt P35225)
# human IL-6 (human) = human IL-6 (human) (UniProt P05231)
# [2] = target: recombinant human IL-1 (human)
# Sequence of human IL-4 (human) (P05112 25-153 limits assumed): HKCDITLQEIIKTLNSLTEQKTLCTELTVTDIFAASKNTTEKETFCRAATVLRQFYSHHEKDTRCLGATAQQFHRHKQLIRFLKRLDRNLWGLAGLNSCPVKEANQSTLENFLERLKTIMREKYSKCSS
# Sequence of human IL-13 (human) (P35225 35-146 limits assumed): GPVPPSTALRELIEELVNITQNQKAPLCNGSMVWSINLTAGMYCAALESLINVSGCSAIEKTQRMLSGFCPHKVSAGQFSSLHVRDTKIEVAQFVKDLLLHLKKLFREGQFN
# Sequence of human IL-6 (human) (P05231 30-212 limits assumed): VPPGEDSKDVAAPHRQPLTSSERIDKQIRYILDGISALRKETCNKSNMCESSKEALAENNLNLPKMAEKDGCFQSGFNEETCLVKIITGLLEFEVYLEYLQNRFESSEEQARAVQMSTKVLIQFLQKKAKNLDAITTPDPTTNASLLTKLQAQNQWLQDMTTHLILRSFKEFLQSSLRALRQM
# Sequence of recombinant human IL-13 (E. coli) (human) (P35225 35-146 limits assumed): as the sequence (P35225 35-146 limits assumed) above
Substance,TF1 cell proliferation (MTS); IL-4 concentration at which growth is inhibited by 50% with 10 nM Trap (human IL-4 (human)) [nM],TF1 cell proliferation (MTS); highest IL-4 concentration blocked by 10 nM Trap (human IL-4 (human)) [nM],TF1 cell proliferation (MTS); IL-13 concentration at which growth is inhibited by 50% with 10 nM Trap (human IL-13 (human)) [nM],TF1 cell proliferation (MTS); highest IL-13 concentration blocked by 10 nM Trap (human IL-13 (human)) [nM],inhibition of IL-6-dependent proliferation of XG-1 cells (MTT) (fold molar excess over IL-6) (human IL-6 (human)),other results
IL-4/IL-13 Trap 1132 (Fc fusion),–,–,–,–,–,"IC50, TF1 cell proliferation with 15 pM IL-13 (E. coli; Preprotech), MTS [1]: 64 pM"
IL-4Rα.IL-13Rα1.Fc (Fc fusion),3 to 4,1,4 to 5,2,–,–
IL-13Rα1.IL-4Rα.Fc (Fc fusion),3 to 4,1,4 to 5,2,–,–
gp130-Fc homodimer (Fc fusion),–,–,–,–,> 1000,–
gp130-Fc-CNTFRα-Fc ligand Trap (Fc fusion),–,–,–,–,> 1000,–
human IL-1 Trap (Fc fusion),–,–,–,–,–,serum IL-6 in mice after injection of human IL-1 (in vivo) (fold molar excess) [2]: 150
